We go through two sequences from patent US20080213812.

The data set deals with Site C binding proteins, HeLa nuclear fraction (HA pool; LBP-1b and LBP-1c/LSF identified by MS) (Homo sapiens). Description: pulldown.

Turning to “TCGCGGCGCGAGTTTCAGGCAGCGCTGCGT (double strand) [Site C oligo (hTERT promoter)]”, the binding signal (fmol shifted per ug protein) (oligo affinity column fraction, 25,332 units and 36.7 ug protein, activity assayed by Site C EMSA) worked out at 690.

Consider “TCGCGGCGAGAGTTTCAGGCAGCGCTGCGT (double strand) [OBC oligo]”, for which, under “equivalent OBC column fraction, 6,300 units and 103 ug, four fold less Site C EMSA activity recovered than from Site C column”, the binding signal (fmol shifted per ug protein) is 61.2.
